Assay results from paper PMC4980022.
Several values for one entry are separate records, joined by “and”; a condition that tells them apart may be missing. Equal entries are not always repeated.

Assays:
[1] = target: PorK lipoprotein (Porphyromonas gingivalis W50 (endogenous in W50ABK*WbaP)); test: negative-stain electron microscopy and electron tomography; purified PorK/N complex (fraction 6 of the CsCl gradient) stained with uranyl acetate
[2] = target: PorK lipoprotein (Porphyromonas gingivalis W50 (endogenous in W50ABK*WbaP)); test: high sensitivity amino acid analysis of the bands; purified PorK/N complex separated on SDS-PAGE, transferred to PVDF, PorK and PorN bands excised
[3] = target: PorN (Porphyromonas gingivalis W50 (endogenous in W50ABK*WbaP)); test: negative-stain electron microscopy and electron tomography; purified PorK/N complex (fraction 6 of the CsCl gradient) stained with uranyl acetate
[4] = target: PorK lipoprotein (Porphyromonas gingivalis W50 (endogenous in W50ABK*WbaP)); test: densitometry of Coomassie stained gels; purified PorK/N complex on SDS-PAGE; PorK band against the combined PorN bands

Substance: PorK lipoprotein (natural protein)
- stoichiometry N [1]: 32 to 36 subunits

Substance: PorN (natural protein)
- stoichiometry N (PorN per PorK) [2]: 1.2
- stoichiometry N [3]: 32 to 36 subunits
- stoichiometry N (PorN per PorK) [4]: 1 and 1.2
